This test deals with T1, MBP-PP1-87B (Drosophila, UniProt P12982 1-302).
T1 construct: Drosophila PP1-87B (orthologue of PP1-gamma); also called MBP-87B; Protein Phosphatase 1; source: E. coli BL21-star, purified with amylose magnetic beads
The experiment in a line: pull-down; purified 6xHis-N-Mps1 fragments incubated with MBP or MBP-PP1-87B bound to amylose magnetic beads; column buffer 250 mM NaCl, 20 mM Tris-HCl pH 7.4, 1 mM EDTA, 1 mM DTT; 60 min, room temperature; western blot. Particulars: both partners purified.

T1 sequence (P12982 whole entry): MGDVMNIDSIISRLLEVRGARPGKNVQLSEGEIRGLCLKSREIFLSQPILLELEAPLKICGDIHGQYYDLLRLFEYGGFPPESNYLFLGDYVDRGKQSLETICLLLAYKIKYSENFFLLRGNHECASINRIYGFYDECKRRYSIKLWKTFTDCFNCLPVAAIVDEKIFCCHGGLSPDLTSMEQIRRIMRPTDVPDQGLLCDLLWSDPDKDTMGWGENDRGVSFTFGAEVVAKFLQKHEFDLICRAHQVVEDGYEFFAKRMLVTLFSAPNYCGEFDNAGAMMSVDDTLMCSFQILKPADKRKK

B1: 6xHis-N-Mps1^WT (domain or fragment, Drosophila, UniProt Q9VEH1 104-330, looked up)
chain: PSQELTNSNSNITTRRTPSAAPLKQSDSNLSFLGRFNDMGINCSSQGSPVANSEKQVAKKTAPTLQAAPSATERRPLQETETPLRNELPSTSKTKPDADFITPQVRTIGSTLAGKSRSAVSNDFRAQKVLFQTPMTVSRAAPVASDSISFSLCDTITESPDIPEPPKKAEPPKSQHPSKKSLDHVFRESDKDNVPDKVDNVEPKELVSIPAVAVPPEQPSHKTSNIL
notes: Drosophila Mps1, N-terminus 104-330 amino acids, cloned into KpnI/XhoI sites of pET30a(+); pET30a(+) may add further vector-coded residues (S-tag) besides the His tag; also called Mps1 N-terminus region (104-330 amino acids); source: E. coli BL21-star, purified with Novex Dynabeads, eluted with imidazole
B1: the binding result was “binds”.
